From patent US12492490 (University of California, dated 2025)

Target: T1, human ephrin type-A receptor 2 (EphA2) (human, UniProt P29317 24-976)
T1 construct: whole, on cells; also called NP_004422
Assay: not described

T1 sequence (P29317 24-976): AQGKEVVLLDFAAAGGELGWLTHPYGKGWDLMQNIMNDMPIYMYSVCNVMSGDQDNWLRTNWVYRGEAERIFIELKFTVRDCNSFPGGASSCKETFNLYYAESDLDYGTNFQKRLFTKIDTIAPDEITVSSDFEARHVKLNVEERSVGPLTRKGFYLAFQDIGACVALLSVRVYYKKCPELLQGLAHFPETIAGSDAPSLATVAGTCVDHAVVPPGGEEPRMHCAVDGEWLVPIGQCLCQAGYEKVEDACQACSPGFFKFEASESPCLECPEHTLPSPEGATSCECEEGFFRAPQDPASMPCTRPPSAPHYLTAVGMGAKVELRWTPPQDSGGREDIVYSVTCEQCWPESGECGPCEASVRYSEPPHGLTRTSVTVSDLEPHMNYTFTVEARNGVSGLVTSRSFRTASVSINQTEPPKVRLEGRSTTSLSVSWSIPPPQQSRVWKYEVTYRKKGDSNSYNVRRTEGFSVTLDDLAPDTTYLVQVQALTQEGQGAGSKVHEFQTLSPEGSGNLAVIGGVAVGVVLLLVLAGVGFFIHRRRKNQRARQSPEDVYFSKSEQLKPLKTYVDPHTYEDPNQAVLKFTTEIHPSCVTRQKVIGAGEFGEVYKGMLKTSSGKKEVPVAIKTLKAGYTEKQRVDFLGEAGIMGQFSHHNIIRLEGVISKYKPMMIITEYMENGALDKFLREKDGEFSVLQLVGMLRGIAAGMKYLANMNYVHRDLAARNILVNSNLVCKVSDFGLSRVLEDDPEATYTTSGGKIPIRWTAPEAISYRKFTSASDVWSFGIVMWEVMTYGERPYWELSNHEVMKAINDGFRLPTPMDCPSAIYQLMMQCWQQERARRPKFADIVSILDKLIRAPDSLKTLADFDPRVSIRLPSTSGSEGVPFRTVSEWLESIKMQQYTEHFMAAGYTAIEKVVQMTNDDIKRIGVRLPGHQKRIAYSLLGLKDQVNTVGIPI

B1: HCA-S1 (antibody, V domains shown)
VH: QVQLQESGGGLVQPGGSLRLSCAASGFTFSSYAMHWVRQAPGKGLEWVAVISYDGSNKYYADSVKGRFTISRDNSKNTLYLQMNSLRAEDTAVYYCARFSSGWYYFDYWGQGTLVTVSS
VL: DIQMTQSPSFLSASVGDRITITCRASHDISSYFAWYQQKPGKAPKPLIYAASTLQSGVPSRFSGSGSGTEFTLTISSLQPEDFATYYCQQLGSYPLTFGGGTKLEIK
notes: also called IgG HCA-S1
  binding result: no binding

B2: HCA-M1 (antibody, V domains shown)
VH: QVQLVESGGGVVQPGRSLRLSCAASGFTFSSYAMHWVRQAPGKGLEWVAVISYDGSNKYYADSVKGRFTISRDNSKNTLYLQMNSLRAEDTAVYYCARAPAYSYGPFDYWGQGTLVTVSS
VL: SSELTQDPAVSVALGQTVRITCQGDSLRSYYASWYQQKPGQAPVLVIYGKNNRPSGIPDRFSGSSSGNTASLTITGAQAEDEADYYCHSRDSSGTHLRVFGGGTKVTVL
notes: also called IgG HCA-M1
  binding result: no binding
